Experimental data taken from patent publication US20250263469A1.

Molecular target: SARS-CoV-2 Spike on pseudotyped virus (PsV) (SARS-CoV-2) (UniProt P0DTC2)
Assay: cell-based or functional assay

Row | Substance | Median IC50, SARS-CoV-2 PsV neutralization [µg/mL]
1 | REGN10933 (recombinant mAb, reference IgG) (antibody) | 0.0044
2 | REGN10987 (recombinant mAb, reference IgG) (antibody) | 0.03
